Laboratory results published in US20140271457A1 (AbbVie / Abbott, published 2014).
Where a chain is given by its changes, count along the chain named.

B1: DVD3159 (bispecific antibody, IgG1)
VH: EVQLVQSGAEVKKPGASVKVSCKASGYTFTSYWMHWVRQAPGQGLEWIGNINPKGGSNIYNEKFQGRVTMTRDTSISTAYMELSRLRSDDTAVYYCARLDYFGDSFDLWGQGTTVTVSSASTKGPEVQLVESGGGLVQPGGSLRLSCAASGFTFSNYGVEWVRQAPGKGLEWVSGIWADGSTHYADTVKSRFTISRDNSKNTLYLQMNSLRAEDTAVYYCAREWQHGPVAYWGQGTLVTVSS
VL: DIQMTQSPSSLSASVGDRVTITCRASQGIRNYLNWYQQKPGKAPKLLIYYASNLEVGVPSRFSGSGSGTDYTLTISSLQPEDFATYYCQQDNRFPYTFGGGTKVEIKRTVAAPDIQMTQSPSSLSASVGDRVTITCKASQLVSSAVAWYQQKPGKAPKLLIYWASTLHTGVPSRFSGSGSGTDFTLTISSLQPEDFATYYCQQHYRTPFTFGQGTKLEIKR
notes: DVD-Ig; wt hIgG1 + kappa constants
B2: DVD3143 (bispecific antibody, IgG1)
VH: EVQLVESGGGLVQPGGSLRLSCAASGFTFSNYGVTWVRQAPGKGLEWVSMIWADGSTHYASSVKGRFTISRDNSKNTLYLQMNSLRAEDTAVYYCAREWQHGPVAYWGQGTLVTVSSGGGGSGGGGSEVQLVQSGAEVKKPGASVKVSCKASGYTFTSYWMHWVRQAPGQGLEWIGNINPKGGSNIYNEKFQGRVTMTRDTSISTAYMELSRLRSDDTAVYYCARLDYFGDSFDLWGQGTTVTVSS
VL: DIQMTQSPSSLSASVGDRVTITCRASQLVSSAVAWYQQKPGKAPKLLIYWASARHTGVPSRFSGSGSGTDFTLTISSLQPEDFATYYCQQHYKTPFTFGQGTKLEIKRGGSGGGGSGDIQMTQSPSSLSASVGDRVTITCRASQGIRNYLNWYQQKPGKAPKLLIYYASNLEVGVPSRFSGSGSGTDYTLTISSLQPEDFATYYCQQDNRFPYTFGGGTKVEIKR
notes: as for B1
B3: DVD3153 (bispecific antibody, IgG1)
VH: B2 VH with T35E, M50G, S61D, S62T, G65S
VL: B2 VL with R24K, A53T, R54L, K93R
notes: as for B1
B4: DVD3092 (bispecific antibody, IgG1)
VH: EVQLVQSGAEVKKPGASVKVSCKASGYTFTTYGVSWVRQAPGQGLEWMGEIYPGNYNTYYNEKFRGRVTMTTDTSTSTAYMELRSLRSDDTAVYYCARWRTSYFSDYGYFDYWGQGTTVTVSSASTKGPSVFPLAPEVQLVESGGGLVQPGGSLRLSCAASGFTFSNYGVTWVRQAPGKGLEWVSMIWADGSTHYASSVKGRFTISRDNSKNTLYLQMNSLRAEDTAVYYCAREWQHGPVAYWGQGTLVTVSS
VL: DVVMTQSPLSLPVTLGQPASISCRSSQSLVHSHGNTYLHWYQQRPGQSPRLLIYTVSNRFSGVPDRFSGSGSGTDFTLKISRVEAEDVGVYYCSQSTHVPYTFGGGTKVEIKRTVAAPDIQMTQSPSSLSASVGDRVTITCRASQLVSSAVAWYQQKPGKAPKLLIYWASARHTGVPSRFSGSGSGTDFTLTISSLQPEDFATYYCQQHYKTPFTFGQGTKLEIKR
notes: as for B1
B5: DVD3087 (bispecific antibody, IgG1)
VH: EVQLVESGGGLVQPGGSLRLSCAASGFTFSNYGVTWVRQAPGKGLEWVSMIWADGSTHYASSVKGRFTISRDNSKNTLYLQMNSLRAEDTAVYYCAREWQHGPVAYWGQGTLVTVSSASTKGPSVFPLAPEVQLVQSGAEVKKPGASVKVSCKASGYTFTTYGVSWVRQAPGQGLEWMGEIYPGNYNTYYNEKFRGRVTMTTDTSTSTAYMELRSLRSDDTAVYYCARWRTSYFSDYGYFDYWGQGTTVTVSS
VL: DIQMTQSPSSLSASVGDRVTITCRASQLVSSAVAWYQQKPGKAPKLLIYWASARHTGVPSRFSGSGSGTDFTLTISSLQPEDFATYYCQQHYKTPFTFGQGTKLEIKRTVAAPDVVMTQSPLSLPVTLGQPASISCRSSQSLVHSHGNTYLHWYQQRPGQSPRLLIYTVSNRFSGVPDRFSGSGSGTDFTLKISRVEAEDVGVYYCSQSTHVPYTFGGGTKVEIKR
notes: as for B1
B6: DVD3097 (bispecific antibody, IgG1)
VH: B5 VH with T35E, M50G, S61D, S62T, G65S
VL: B5 VL with R24K, A53T, R54L, K93R
notes: as for B1
B7: DVD3144 (bispecific antibody, IgG1)
VH: EVQLVESGGGLVQPGGSLRLSCAASGFTFSNYGVTWVRQAPGKGLEWVSMIWADGSTHYASSVKGRFTISRDNSKNTLYLQMNSLRAEDTAVYYCAREWQHGPVAYWGQGTLVTVSSASTKGPEVQLVQSGAEVKKPGASVKVSCKASGYTFTSYWMHWVRQAPGQGLEWIGNINPKGGSNIYNEKFQGRVTMTRDTSISTAYMELSRLRSDDTAVYYCARLDYFGDSFDLWGQGTTVTVSS
VL: DIQMTQSPSSLSASVGDRVTITCRASQLVSSAVAWYQQKPGKAPKLLIYWASARHTGVPSRFSGSGSGTDFTLTISSLQPEDFATYYCQQHYKTPFTFGQGTKLEIKRTVAAPDIQMTQSPSSLSASVGDRVTITCRASQGIRNYLNWYQQKPGKAPKLLIYYASNLEVGVPSRFSGSGSGTDYTLTISSLQPEDFATYYCQQDNRFPYTFGGGTKVEIKR
notes: as for B1
B8: DVD3147 (bispecific antibody, IgG1)
VH: EVQLVESGGGLVQPGGSLRLSCAASGFTFSNYGVTWVRQAPGKGLEWVSMIWADGSTHYASSVKGRFTISRDNSKNTLYLQMNSLRAEDTAVYYCAREWQHGPVAYWGQGTLVTVSSASTKGPSVFPLAPEVQLVQSGAEVKKPGASVKVSCKASGYTFTSYWMHWVRQAPGQGLEWIGNINPKGGSNIYNEKFQGRVTMTRDTSISTAYMELSRLRSDDTAVYYCARLDYFGDSFDLWGQGTTVTVSS
VL: B7 VL
notes: as for B1
B9: DVD3146 (bispecific antibody, IgG1)
VH: B7 VH
VL: DIQMTQSPSSLSASVGDRVTITCRASQLVSSAVAWYQQKPGKAPKLLIYWASARHTGVPSRFSGSGSGTDFTLTISSLQPEDFATYYCQQHYKTPFTFGQGTKLEIKRTVAAPSVFIFPPDIQMTQSPSSLSASVGDRVTITCRASQGIRNYLNWYQQKPGKAPKLLIYYASNLEVGVPSRFSGSGSGTDYTLTISSLQPEDFATYYCQQDNRFPYTFGGGTKVEIKR
notes: as for B1
B10: DVD3157 (bispecific antibody, IgG1)
VH: B8 VH with T35E, M50G, S61D, S62T, G65S
VL: B7 VL with R24K, A53T, R54L, K93R
notes: as for B1
B11: DVD3154 (bispecific antibody, IgG1)
VH: B7 VH with T35E, M50G, S61D, S62T, G65S
VL: B7 VL with R24K, A53T, R54L, K93R
notes: as for B1
B12: DVD3156 (bispecific antibody, IgG1)
VH: B7 VH with T35E, M50G, S61D, S62T, G65S
VL: B9 VL with R24K, A53T, R54L, K93R
notes: as for B1
B13: DVD3114 (bispecific antibody, IgG1)
VH: EVQLVQSGAEVKKPGASVKVSCKASGYTFNNYGIIWVRQAPGQGLEWMGWINTYTGKPTYAQKFQGRVTMTTDTSTSTAYMELSSLRSEDTAVYYCARKLFNTVAVTDNAMDYWGQGTTVTVSSASTKGPEVQLVQSGAEVKKPGASVKVSCKASGYTFTTYGVSWVRQAPGQGLEWMGEIYPGNYNTYYNEKFRGRVTMTTDTSTSTAYMELRSLRSDDTAVYYCARWRTSYFSDYGYFDYWGQGTTVTVSS
VL: DIQMTQSPSSLSASVGDRVTITCRASQDIENYLNWYQQKPGKAPKLLIYYTSRLQSGVPSRFSGSGSGTDFTLTISSLQPEDFATYFCQQGNTQPPTFGQGTKLEIKRTVAAPDVVMTQSPLSLPVTLGQPASISCRSSQSLVHSHGNTYLHWYQQRPGQSPRLLIYTVSNRFSGVPDRFSGSGSGTDFTLKISRVEAEDVGVYYCSQSTHVPYTFGGGTKVEIKR
notes: as for B1
B14: DVD3158 (bispecific antibody, IgG1)
VH: EVQLVQSGAEVKKPGASVKVSCKASGYTFTSYWMHWVRQAPGQGLEWIGNINPKGGSNIYNEKFQGRVTMTRDTSISTAYMELSRLRSDDTAVYYCARLDYFGDSFDLWGQGTTVTVSSGGGGSGGGGSEVQLVESGGGLVQPGGSLRLSCAASGFTFSNYGVEWVRQAPGKGLEWVSGIWADGSTHYADTVKSRFTISRDNSKNTLYLQMNSLRAEDTAVYYCAREWQHGPVAYWGQGTLVTVSS
VL: DIQMTQSPSSLSASVGDRVTITCRASQGIRNYLNWYQQKPGKAPKLLIYYASNLEVGVPSRFSGSGSGTDYTLTISSLQPEDFATYYCQQDNRFPYTFGGGTKVEIKRGGSGGGGSGDIQMTQSPSSLSASVGDRVTITCKASQLVSSAVAWYQQKPGKAPKLLIYWASTLHTGVPSRFSGSGSGTDFTLTISSLQPEDFATYYCQQHYRTPFTFGQGTKLEIKR
notes: as for B1
B15: DVD3113 (bispecific antibody, IgG1)
VH: EVQLVQSGAEVKKPGASVKVSCKASGYTFNNYGIIWVRQAPGQGLEWMGWINTYTGKPTYAQKFQGRVTMTTDTSTSTAYMELSSLRSEDTAVYYCARKLFNTVAVTDNAMDYWGQGTTVTVSSGGGGSGGGGSEVQLVQSGAEVKKPGASVKVSCKASGYTFTTYGVSWVRQAPGQGLEWMGEIYPGNYNTYYNEKFRGRVTMTTDTSTSTAYMELRSLRSDDTAVYYCARWRTSYFSDYGYFDYWGQGTTVTVSS
VL: DIQMTQSPSSLSASVGDRVTITCRASQDIENYLNWYQQKPGKAPKLLIYYTSRLQSGVPSRFSGSGSGTDFTLTISSLQPEDFATYFCQQGNTQPPTFGQGTKLEIKRGGSGGGGSGDVVMTQSPLSLPVTLGQPASISCRSSQSLVHSHGNTYLHWYQQRPGQSPRLLIYTVSNRFSGVPDRFSGSGSGTDFTLKISRVEAEDVGVYYCSQSTHVPYTFGGGTKVEIKR
notes: as for B1

Target: Recombinant Human IL-13 (human, UniProt P35225 35-146, limits assumed)
Sequence (P35225 35-146 limits assumed): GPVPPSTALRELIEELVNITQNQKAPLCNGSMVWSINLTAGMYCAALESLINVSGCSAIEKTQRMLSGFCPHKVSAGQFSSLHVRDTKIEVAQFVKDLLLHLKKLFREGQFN
Assay: Biacore SPR
Method in brief: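 Antibodies or DVD-Ig captured on anti-mouse IgG (Fcγ) CM5 surface, SPR at 25 °C in HBS-EP+. Antigen at 0.8–100 nM, 50 μl/min; association 5 min, dissociation 10 min. kon and koff came from a global 1:1 fit with local Rmax.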

Binder | Kd | koff | kon
B1 | 39 pM | 5.4e-05 s⁻¹ | 1.4e+06 M⁻¹ s⁻¹
B2 | 370 pM | 6.2e-05 s⁻¹ | 170000 M⁻¹ s⁻¹
B3 | 450 pM | 8.2e-05 s⁻¹ | 180000 M⁻¹ s⁻¹
B4 | 44 pM | 2.5e-05 s⁻¹ | 580000 M⁻¹ s⁻¹
B5 | < 20 pM | < 1e-06 s⁻¹ | 51000 M⁻¹ s⁻¹
B6 | < 21 pM | < 1e-06 s⁻¹ | 48000 M⁻¹ s⁻¹
B7 | 120 pM | 7.3e-06 s⁻¹ | 62000 M⁻¹ s⁻¹
B8 | < 7.7 pM | < 1e-06 s⁻¹ | 130000 M⁻¹ s⁻¹
B9 | 240 pM | 4.6e-05 s⁻¹ | 190000 M⁻¹ s⁻¹
B10 | 9.5 pM | 1.1e-06 s⁻¹ | 110000 M⁻¹ s⁻¹
B11 | 580 pM | 3e-05 s⁻¹ | 53000 M⁻¹ s⁻¹
B12 | 340 pM | 5.4e-05 s⁻¹ | 160000 M⁻¹ s⁻¹
B13 | 6.9 pM | 1.2e-06 s⁻¹ | 170000 M⁻¹ s⁻¹
B14 | 57 pM | 6.7e-05 s⁻¹ | 1.2e+06 M⁻¹ s⁻¹
B15 | 15 pM | 1.2e-06 s⁻¹ | 75000 M⁻¹ s⁻¹
